Measurements from paper PMC9039505, “Ethylene precisely regulates anthocyanin synthesis in apple via a module comprising MdEIL1, MdMYB1, and MdMYB17”.

T1: MdEIL1 (apple, UniProt D5L144 1-659)
T1 sequence: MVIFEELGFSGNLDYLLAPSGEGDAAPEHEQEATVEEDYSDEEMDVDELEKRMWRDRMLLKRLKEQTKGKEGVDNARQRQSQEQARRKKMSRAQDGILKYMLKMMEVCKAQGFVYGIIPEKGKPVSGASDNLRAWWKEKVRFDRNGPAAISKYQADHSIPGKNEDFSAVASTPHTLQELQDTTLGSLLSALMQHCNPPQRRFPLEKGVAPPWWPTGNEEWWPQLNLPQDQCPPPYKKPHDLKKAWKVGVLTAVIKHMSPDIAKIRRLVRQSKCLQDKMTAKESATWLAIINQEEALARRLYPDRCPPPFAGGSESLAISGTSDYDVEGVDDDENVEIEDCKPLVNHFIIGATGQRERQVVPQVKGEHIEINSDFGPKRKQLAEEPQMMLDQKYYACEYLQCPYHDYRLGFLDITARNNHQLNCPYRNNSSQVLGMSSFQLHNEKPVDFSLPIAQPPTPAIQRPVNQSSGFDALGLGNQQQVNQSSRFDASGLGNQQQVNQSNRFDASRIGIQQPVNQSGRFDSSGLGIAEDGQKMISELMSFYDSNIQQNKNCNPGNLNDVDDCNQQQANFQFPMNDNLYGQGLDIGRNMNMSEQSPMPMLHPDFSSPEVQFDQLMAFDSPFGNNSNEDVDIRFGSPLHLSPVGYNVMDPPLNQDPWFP

T2: MdMYB17 (apple, UniProt D9ZJ54 1-196)
T2 sequence: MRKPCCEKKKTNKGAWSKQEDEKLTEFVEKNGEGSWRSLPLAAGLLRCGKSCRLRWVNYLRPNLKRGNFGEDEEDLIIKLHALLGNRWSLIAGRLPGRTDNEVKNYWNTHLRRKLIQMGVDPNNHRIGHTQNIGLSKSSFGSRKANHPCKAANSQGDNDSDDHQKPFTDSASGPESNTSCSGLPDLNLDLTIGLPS

T3: MdMYB1 (apple, UniProt A0SQ35 1-243)
T3 sequence: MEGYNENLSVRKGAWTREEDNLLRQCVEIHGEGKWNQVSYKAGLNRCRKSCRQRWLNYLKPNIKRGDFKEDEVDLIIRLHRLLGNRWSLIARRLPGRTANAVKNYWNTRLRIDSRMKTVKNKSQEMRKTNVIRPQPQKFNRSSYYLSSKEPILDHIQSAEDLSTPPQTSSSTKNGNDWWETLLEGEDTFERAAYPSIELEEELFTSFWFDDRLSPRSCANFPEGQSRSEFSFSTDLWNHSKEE


Key:
MdEIL1 = molecular target: T1, MdEIL1; assay: EMSA; LightShift Chemiluminescent EMSA kit; buffer, salt, pH and temperature not stated; cold competitor 200-300-fold; conditions: protein: recombinant; tags: His (pET-32a fusion); label: biotin; blunt
MdMYB17 [1] = molecular target: T2, MdMYB17; assay: as above; conditions: protein: recombinant; tags: His (pET-32a fusion); label: biotin; blunt
MdMYB17 [2] = molecular target: T2, MdMYB17; assay: competition; unlabeled mutant competitor; LightShift Chemiluminescent EMSA kit; buffer, salt, pH and temperature not stated; cold competitor 200-300-fold; conditions: protein: recombinant; tags: His (pET-32a fusion); blunt
MdMYB1 = molecular target: T3, MdMYB1; assay: EMSA; LightShift Chemiluminescent EMSA kit; buffer, salt, pH and temperature not stated; cold competitor 200-300-fold; conditions: protein: recombinant; tags: His (pET-32a fusion); label: biotin; blunt

Row | Binder | binding result (MdMYB17 [1]) | binding result (MdMYB17 [2]) | also measured
1 | MdMYB17 promoter ATGTA1 probe (dsDNA) DNA 1: TCAAATTAATTATAAATTAAATGTAACCATGACAAGGAAAGTGTC DNA 2: GACACTTTCCTTGTCATGGTTACATTTAATTTATAATTAATTTGA |  |  | binding result (MdEIL1): binds
2 | MdDFR promoter MBS probe (dsDNA) DNA 1: AAACTCCCTAAATAAACCAGTTGTACTGGTGGATAGGCCT DNA 2: AGGCCTATCCACCAGTACAACTGGTTTATTTAGGGAGTTT | binds |  | 
3 | MdDFR promoter MBS mutated (dsDNA) DNA 1: AAACTCCCTAAATAAACCGGTCGTACTGGTGGATAGGCCT DNA 2: AGGCCTATCCACCAGTACGACCGGTTTATTTAGGGAGTTT |  | no binding | 
4 | MdUFGT promoter MBS probe (dsDNA) DNA 1: GTCAAGTATGGTACAAACAACTGCAATAAAATATTGCCAC DNA 2: GTGGCAATATTTTATTGCAGTTGTTTGTACCATACTTGAC | binds |  | 
5 | MdUFGT promoter MBS mutated (dsDNA) DNA 1: GTCAAGTATGGTACAAACGACTACAATAAAATATTGCCAC DNA 2: GTGGCAATATTTTATTGTAGTCGTTTGTACCATACTTGAC |  | no binding | 
6 | MdMYB1 promoter MBS probe (dsDNA) DNA 1: AGACTGGTAGCTATTAACAACTGTTGGAATGTTTTAAACT DNA 2: AGTTTAAAACATTCCAACAGTTGTTAATAGCTACCAGTCT | binds |  | 
7 | MdMYB1 promoter MBS mutated (dsDNA) DNA 1: AGACTGGTAGCTATTAACGACTATTGGAATGTTTTAAACT DNA 2: AGTTTAAAACATTCCAATAGTCGTTAATAGCTACCAGTCT |  | no binding | 
8 | MdEIL1 promoter MRE2 probe (dsDNA) DNA 1: ATTGTTCTGTTTATTGTTTAGGTTAATCTGTTCTTATCTGC DNA 2: GCAGATAAGAACAGATTAACCTAAACAATAAACAGAACAAT | binds |  | 
9 | MdMYB17 promoter MBS3 probe (dsDNA) DNA 1: AGATGTGTAGTTAAATTACCCAACTGTAAGTCAAGCGGAGTAGTCA DNA 2: TGACTACTCCGCTTGACTTACAGTTGGGTAATTTAACTACACATCT |  |  | binding result (MdMYB1): binds
